In patent US20260146247A1:

Target: CD4 (human) (UniProt P01730)
Assay: cell-based or functional assay

Question: “HIV-1 envelope glycoprotein (Env) (from UniProt P04578 33-856)” was tested. Which transduction (mNeonGreen+) of CD4+ cells in a mixture of CD4+ and CD8+ primary human T cells treated with Env-Cas9-VLPs, highest treatment dose did it give?
Answer: 53.2%
